From US20190085323A1 (published 2019) come the findings set out here.

In test [1] the target is T1, HER2-ECD (recombinant extracellular domain of human epidermal growth factor receptor 2) (human, UniProt P04626 23-652).
T1 construct: extracellular domain; Recombinant HER2-ECD coated on ELISA plates
The test is described as follows: ELISA, IgG1 titrated on immobilized HER2-ECD.

In test [2] the target is T2, HER2 on the surface of N87 gastric cancer cells (human, UniProt P04626 23-1255).
T2 construct: whole, on cells; also called cell surface HER2
Nature of the test: flow cytometry on N87 cells, 0.5 nM scFv detected with AL1-RFP.

Test [3] addresses T2, HER2 on the surface of N87 gastric …. The test is described as follows: cell-based or functional assay.

Changes are numbered by the printed parent chain.

B1: 35CPT-9 IgG1 (antibody, V domains shown)
VH: EVQLVESGGGLVQPGGSLRLSCKASGYTFGDYGMHWVRQAPGKGLEWVAHIAPNDGITHYADSVKGRFTISADTSKNTAYLQMNSLRAEDTAVYYCARGYGWYDHVMDYWGQGTLVTVSS
VL: DIQMTQSPSSLSASVGGRVTITCKSNQNLLDSYGRTYLYWYQQKPGKAPKLLISGTSGLYSGVPSRFSGSGSGTDFTLTISSLQPEDFATYYCFQGYDYPFTFGQGTKVEIKR
B1: the EC50 (as a rule, the concentration needed to bring the measured effect to its halfway point) in test [1] worked out at 31.7 ng/mL.

B2: 31YCM#3 source scFv (scFv)
chain: DIQMTQSPSSLSASVGDRVTITCKSNQNLLISGNQWTFLNWYQQKPGKAPKLLIYDVSRLYSGVPSRFSGSGSGTDFTLTISSLQPEDFATYYCYQGSDFPGTFGQGTKVEIKREVQLVESGGGLVQPGGSLRLSCKASGYTFARSGMHWVRQAPGKGLEWVAGISPNYGLTHYADSVKGRFTISADTSKNTAYLQMNSLRAEDTAVYYCARGFGVLDYWGQGTLVTVSSASAAA
B2 returned an MFI in test [2] of 177. In test [3], the “% cell viability (AL1)” value amounted to 96.4% and the “% cell viability (AL2)” value worked out at 91.5%.

B3: 2835-28 IgG1 (antibody, V domains shown)
VH: EVQLVESGGGLVQPGGSLRLSCKASGYTFTDGSMHWVRQAPGKGLEWVAYINPYFGDTYYADSVKGRFTISADTSKNTAYLQMNSLRAEDTAVYYCARGWIDYWGQGTLVTVSS
VL: DIQMTQSPSSLSASVGDRVTITCKSNQNLLLSNGRTFLYWYQQKPGKAPKLLIYGTSYLYSGVPSRFSGSGSGTDFTLTISSLQPEDFATYYCFQANHLPWTFGQGTKVEIKR
For B3, the EC50 in test [1] is 3.9 ng/mL.

B4: 35WYK-16 IgG1 (antibody, V domains shown)
VH: EVQLVESGGGLVQPGGSLRLSCKASGYTFGTSWMHWVRQAPGKGLEWVAGITPYYGLTFYADSVKGRFTISADTSKNTAYLQMNSLRAEDTAVYYCARGNLDYWGQGTLVTVSS
VL: B3 VL with G55D, T56V, Y58D, A96G, H98N, L99F, W101Y
For the molecule B4, the EC50 in test [1] came to 6.2 ng/mL.

B5: 29TYL#1 IgG1 (antibody, V domains shown)
VH: B3 VH with T30S, D31T, Y50H, Y54H, D57L, Y59L, R98G, G99S, W100G, I101F
VL: B3 VL with R35W, Y39N, Y54S, G55R, T56I, Y58D, N97S, H98D, L99F, W101Y
With B5, in test [1], the EC50 stood at 4.1 ng/mL.

B6: 35WYK-9 IgG1 (antibody, V domains shown)
VH: B4 VH with G30S, T31H, S32W, W33G, T52Y, Y55F, L57N, F59Y, N100L
VL: DIQMTQSPSSLSASVGDRVTITCKSNQNLLLSNGRTFLHWYQQKPGKAPKLLIFDVSNLYSGAPSRFSGSGSGTDFTLTISSLQPDDFATYYCSQTSRFPWTFGQGTKVEIKR
As for B6, the EC50 in test [1] worked out at 5.7 ng/mL.

B7: 29TYL#10 IgG1 (antibody, V domains shown)
VH: B3 VH
VL: B3 VL
In the case of B7, the EC50 in test [1] is 3.8 ng/mL.

B8: 29TYL#1 source scFv (scFv)
chain: DIQMTQSPSSLSASVGDRVTITCKSNQNLLLSNGWTFLNWYQQKPGKAPKLLISRISDLYSGVPSRFSGSGSGTDFTLTISSLQPEDFATYYCFQASDFPYTFGQGTKVEIKREVQLVESGGGLVQPGGSLRLSCKASGYTFSTGSMHWVRQAPGKGLEWVAHINPHFGLTLYADSVKGRFTISADTSKNTAYLQMNSLRAEDTAVYYCAGSGFDYWGQGTLVTVSSASAAA
For the molecule B8, the MFI in test [2] was 491. For the same molecule, in test [3], the “% cell viability (AL1)” value was found to be 67.5% and the “% cell viability (AL2)” value was determined as 32.7%.

B9: 30CHS-12 IgG1 (antibody, V domains shown)
VH: EVQLVESGGGLVQPGGSLRLSCAASGFTISDYWIHWVRQAPGKGLEWVAGINPYYGVTVYADSVKGRFTISADTSKNTAYLQMNSLRAEDTAVYYCARGGVLDYWGQGTLVTVSS
VL: DIQMTQSPSSLSASVGDRVTITCKSNQNLLDSGNQGTFLNWYQQKPGKAPKLLIFGTSHLYSGVPSRFSGSGSGTDFTLTISSLQPEDFATYYCSQSTDLPFTFGQGTKVEIKR
Consider B9, for which the EC50 in test [1] was determined as 41 ng/mL.

B10: 30CHS-13 IgG1 (antibody, V domains shown)
VH: EVQLVESGGGLVQPGGSLRLSCKASGYTFGHYSMFWVRQAPGKGLEWVASIYPHYGHTYYADSVKGRFTISADTSKNTAYLQMNSLRAEDTAVYYCARGHWLDYWGQGTLVTVSS
VL: B9 VL with G36R, F38Y, F55Y, G56H, H59R, S97T, T98F, D99R, L100H, F102G
In the case of B10, the EC50 in test [1] came to 41 ng/mL.

B11: 30CHS-41 IgG1 (antibody, V domains shown)
VH: B10 VH with G30T, Y32W, S33G, F35H, S50R, Y52N, H54Y, H57L, Y59H
VL: DIQMTQSPSSLSASVGDRVTITCKSNQNLLDSGHQRTYLNWYQQKPGKAPKLLIYHTSLLYSGVPSRFSGSGSGTDFTLTISSLQPEDFATYYCSQTFRHPGTFGQGTKVEIKR
B11: the EC50 in test [1] came out at 5 ng/mL.

B12: 31YCM#5 IgG1 (antibody, V domains shown)
VH: EVQLVESGGGLVQPGGSLRLSCKASGYTFGGSYMHWVRQAPGKGLEWVARIYPHYGYTYYADSVKGRFTISADTSKNTAYLQMNSLRAEDTAVYYCARGDDHFDYWGQGTLVTVSS
VL: DIQMTQSPSSLSASVGDRVTITCKSNQNLLDSHGWTYLHWYQQKPGKAPKLLIYDASNLYSGVPSRFSGSGSGTDFTLTISSLQPEDFATYYCSQSYRLPYTFGQGTKVEIKR
notes: also called 3 YCM #5
For the molecule B12, the EC50 in test [1] amounted to 6.3 ng/mL.

B13: 31YCM#3 IgG1 (antibody, V domains shown)
VH: EVQLVESGGGLVQPGGSLRLSCKASGYTFARSGMHWVRQAPGKGLEWVAGISPNYGLTHYADSVKGRFTISADTSKNTAYLQMNSLRAEDTAVYYCARGFGVLDYWGQGTLVTVSS
VL: DIQMTQSPSSLSASVGDRVTITCKSNQNLLISGNQWTFLNWYQQKPGKAPKLLIYDVSRLYSGVPSRFSGSGSGTDFTLTISSLQPEDFATYYCYQGSDFPGTFGQGTKVEIKR
Regarding B13, the EC50 in test [1] amounted to 7.3 ng/mL.

B14: 30CHS-12 source scFv (scFv)
chain: DIQMTQSPSSLSASVGDRVTITCKSNQNLLDSGNQGTFLNWYQQKPGKAPKLLIFGTSHLYSGVPSRFSGSGSGTDFTLTISSLQPEDFATYYCSQSTDLPFTFGQGTKVEIKREVQLVESGGGLVQPGGSLRLSCAASGFTISDYWIHWVRQAPGKGLEWVAGINPYYGVTVYADSVKGRFTISADTSKNTAYLQMNSLRAEDTAVYYCARGGVLDYWGQGTLVTVSSASAAA
Take B14: the MFI in test [2] was determined as 198. In addition, in test [3], the “% cell viability (AL1)” value worked out at 64.9% and the “% cell viability (AL2)” value was 61.7%.

B15: 35WYK-16 source scFv (scFv)
chain: DIQMTQSPSSLSASVGDRVTITCKSNQNLLLSNGRTFLYWYQQKPGKAPKLLIYDVSDLYSGVPSRFSGSGSGTDFTLTISSLQPEDFATYYCFQGNNFPYTFGQGTKVEIKREVQLVESGGGLVQPGGSLRLSCKASGYTFGTSWMHWVRQAPGKGLEWVAGITPYYGLTFYADSVKGRFTISADTSKNTAYLQMNSLRAEDTAVYYCARGNLDYWGQGTLVTVSSASAAA
In test [2], B15 gave an MFI of 299. Further, in test [3], the “% cell viability (AL1)” value was determined as 72.2% and the “% cell viability (AL2)” value came to 41.4%.

B16: 35WYK-9 source scFv (scFv)
chain: DIQMTQSPSSLSASVGDRVTITCKSNQNLLLSNGRTFLHWYQQKPGKAPKLLIFDVSNLYSGAPSRFSGSGSGTDFTLTISSLQPDDFATYYCSQTSRFPWTFGQGTKVEIKREVQLVESGGGLVQPGGSLRLSCKASGYTFSHWGMHWVRQAPGKGLEWVAGIYPYFGNTYYADSVKGRFTISADTSKNTAYLQMNSLRAEDTAVYYCARGLLDYWGQGTLVTVSSASAAA
In test [2], B16 returned an MFI of 265. For the same molecule, in test [3], the “% cell viability (AL1)” value was determined as 84.7% and the “% cell viability (AL2)” value stood at 80.9%.
